Laboratory results from US20260076602A1, “SYSTEM AND METHOD FOR RAPID ASSESSMENT OF RENAL FUNCTION” (Mayo Foundation for Medical Education and Research, priority 2018, published 2026).

Test: Normalized fluorescence from retinal vasculature following IV injection of fluorescent tracer agents (renal clearance)
Conditions: period of 15 min after IV injection, FIG. 12A
Method: Normalized fluorescence from retinal vasculature following sequential IV FITC-inulin (green) and Rhod-Dex (500 kD, red) using Phoenix Research Systems Micron imaging may be obtained. Traces synchronized to tail-vein injection (T=0 min). […] Inulin clearance based on traces of normalized fluorescence and previous calibration of Inulin/Rhod-Dex ratio in WT mouse whole blood (insert). Dashed black lines=exponential and linear (insert) curve fits to inulin concentration.
As an example, AK-Fluor®, a fluorescein-based substance, may be used as a first tracer agent that is substantially cleared by healthy renal function and emits a first fluorescent light when excited by a first excitation light. […] In some examples, a AK-Fluor® of 10^−7 g/ml is injected into the patient during an iGFR procedure. […] As shown, in addition to recording the fluorescence signals representing the fluorescent intensities of a first tracer agent and a second tracer agent, a decay rate of the first tracer agent may also be fitted to a first exponential order. […] As another example, FITC-inulin may also be used as a first tracer agent that is substantially cleared by healthy renal function and emits a first fluorescent light when excited by a first excitation light.

With FITC-inulin the “fluorescence of tracer agent after injection (clearance by healthy renal function)” value was “decrease over a period of 15 min after injection”.
